Residue numbers refer to the chain shown, from its start.
T1: corticotropin-releasing hormone (CRH) peptide (human and mouse (same sequence), not fully specified)
T1 peptide: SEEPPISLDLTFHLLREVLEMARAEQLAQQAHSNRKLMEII

B1: PR302341-63 (antibody, human IgG1, kappa, V domains shown)
VH: QVQLVQSGAEVKKPGASVKVSCKASGYTFTDYFMKWVRQAPGQRLEWMGVINPNQGDIFYNQKFKGRVTITRDTSASTAYMELSSLRSEDTAVYYCARGTDRALFAYWGQGTLVTVSS
VL: DVVMTQSPLSLPVTLGQPASISCRSGQSIVHSEGNTYLEWYQQRPGQSPRLLIYKVSNRFSGVPDRFSGSGSGTDFTLKISRVEAEDLGVYYCFQGSHIPWTFGGGTKVEIKR
B2: PR302341-71 (antibody, human IgG1, kappa, V domains shown)
VH: B1 VH with Q55N
VL: B1 VL
B3: PR302341-62 (antibody, human IgG1, kappa, V domains shown)
VH: B1 VH with Q55S
VL: B1 VL
B4: PR302341-33 (antibody, human IgG1, kappa, V domains shown)
VH: B1 VH with R44G, Q55N, G56A, I70M, R72V, T74K, A76I, S85R, E89D
VL: B1 VL with E33D, G34A
B5: PR302341-29 (antibody, human IgG1, kappa, V domains shown)
VH: B1 VH with R44G, Q55N, G56A, I70M, R72V, T74K, A76I, S85R, E89D
VL: B1 VL with E33D
B6: PR302341-70 (antibody, human IgG1, kappa, V domains shown)
VH: B1 VH with Q55N
VL: B1 VL with E33D, G34A
B7: PR302341-32 (antibody, human IgG1, kappa, V domains shown)
VH: B1 VH with R44G, I70M, R72V, T74K, A76I, S85R, E89D
VL: B1 VL
B8: PR302341-41 (antibody, human IgG1, kappa, V domains shown)
VH: B1 VH with R44G, Q55S, I70M, R72V, T74K, A76I, S85R, E89D
VL: B1 VL with E33D
B9: PR302341-37 (antibody, human IgG1, kappa, V domains shown)
VH: B1 VH with R44G, Q55S, I70M, R72V, T74K, A76I, S85R, E89D
VL: B1 VL with E33D, G34A
B10: PR302341-42 (antibody, human IgG1, kappa, V domains shown)
VH: B1 VH with R44G, Q55N, I70M, R72V, T74K, A76I, S85R, E89D
VL: B1 VL with E33S
B11: PR302341-66 (antibody, human IgG1, kappa, V domains shown)
VH: B1 VH
VL: B1 VL with E33S
B12: PR302341-65 (antibody, human IgG1, kappa, V domains shown)
VH: B1 VH with Q55S
VL: B1 VL with E33S
B13: PR302341-36 (antibody, human IgG1, kappa, V domains shown)
VH: B1 VH with R44G, Q55S, I70M, R72V, T74K, A76I, S85R, E89D
VL: B1 VL
B14: PR302341-34 (antibody, human IgG1, kappa, V domains shown)
VH: B1 VH with R44G, I70M, R72V, T74K, A76I, S85R, E89D
VL: B1 VL with E33D, G34A
B15: PR302341-39 (antibody, human IgG1, kappa, V domains shown)
VH: B1 VH with R44G, Q55N, G56A, I70M, R72V, T74K, A76I, S85R, E89D
VL: B1 VL with E33S
B16: PR302341-72 (antibody, human IgG1, kappa, V domains shown)
VH: B1 VH with Q55N
VL: B1 VL with E33S
B17: PR302341-40 (antibody, human IgG1, kappa, V domains shown)
VH: B1 VH with R44G, Q55S, I70M, R72V, T74K, A76I, S85R, E89D
VL: B1 VL with E33S
B18: PR302341-31 (antibody, human IgG1, kappa, V domains shown)
VH: B1 VH with R44G, Q55N, I70M, R72V, T74K, A76I, S85R, E89D
VL: B1 VL with E33D, G34A
B19: PR302341-38 (antibody, human IgG1, kappa, V domains shown)
VH: B1 VH with R44G, I70M, R72V, T74K, A76I, S85R, E89D
VL: B1 VL with E33S
B20: PR302341-64 (antibody, human IgG1, kappa, V domains shown)
VH: B1 VH with Q55N, G56A
VL: B1 VL with E33S
B21: PR302341-30 (antibody, human IgG1, kappa, V domains shown)
VH: B1 VH with R44G, Q55N, I70M, R72V, T74K, A76I, S85R, E89D
VL: B1 VL
B22: PR302341-28 (antibody, human IgG1, kappa, V domains shown)
VH: B1 VH with R44G, I70M, R72V, T74K, A76I, S85R, E89D
VL: B1 VL with E33D
B23: PR302341-35 (antibody, human IgG1, kappa, V domains shown)
VH: B1 VH with R44G, Q55N, G56A, I70M, R72V, T74K, A76I, S85R, E89D
VL: B1 VL
B24: PR302341-1 (antibody, human IgG1, kappa, V domains shown)
VH: EVQLQQSGPELVKPGASVKMSCKASGYTFTDYFMKWVKQSHGESLEWIGVINPNNGDIFYNQKFKGKATLTVDKSSSTAFMQLNSLTSEDSAVYSCARGTDRALFAYWGQGTLVAVSA
VL: B1 VL with E33D, Y41F, L51R, L88V
B25: PR302341-4 (antibody, human IgG1, kappa, V domains shown)
VH: B24 VH
VL: B1 VL with S7T, L11S, E33D, S48P, S72A
B26: PR302341-6 (antibody, human IgG1, kappa, V domains shown)
VH: B24 VH
VL: B1 VL with S7T, P12S, L15P, E33D, Q42L, R44K, R50Q
B27: PR302341-12 (antibody, human IgG1, kappa, V domains shown)
VH: B1 VH with R44G, Q55N, I70M, R72V, T74K, A76T
VL: B1 VL with S7T, P12S, L15P, E33D, Q42L, R44K, R50Q
B28: PR302341-11 (antibody, human IgG1, kappa, V domains shown)
VH: B1 VH with R44G, Q55N, I70M, R72V, T74K, A76T
VL: B1 VL with V2I, S7T, P12S, L15P, E33D, Q42L, R44K, R50Q, L88V
B29: PR302341-19 (antibody, human IgG1, kappa, V domains shown)
VH: B1 VH with R44G, Q55N, I70M, A76T, A79V
VL: B1 VL with E33D
B30: PR302341-3 (antibody, human IgG1, kappa, V domains shown)
VH: B24 VH
VL: B1 VL with V2I, S7T, L11S, E33D, Y41L, S48P, S72A, L88V
B31: PR302341-8 (antibody, human IgG1, kappa, V domains shown)
VH: B1 VH with R44G, Q55N, I70M, R72V, T74K, A76T
VL: B1 VL with E33D
B32: PR302341-7 (antibody, human IgG1, kappa, V domains shown)
VH: B1 VH with R44G, Q55N, I70M, R72V, T74K, A76T
VL: B1 VL with E33D, Y41F, L51R, L88V
B33: PR302341-21 (antibody, human IgG1, kappa, V domains shown)
VH: B1 VH with Q55N, R72V, T74K
VL: B1 VL with E33D
B34: PR302341-2 (antibody, human IgG1, kappa, V domains shown)
VH: B24 VH
VL: B1 VL with E33D
B35: PR302341-5 (antibody, human IgG1, kappa, V domains shown)
VH: B24 VH
VL: B1 VL with V2I, S7T, P12S, L15P, E33D, Q42L, R44K, R50Q, L88V
B36: PR302341-9 (antibody, human IgG1, kappa, V domains shown)
VH: B1 VH with R44G, Q55N, I70M, R72V, T74K, A76T
VL: B1 VL with V2I, S7T, L11S, E33D, Y41L, S48P, S72A, L88V
B37: PR302341-13 (antibody, human IgG1, kappa, V domains shown)
VH: B1 VH with R44G, Q55N, I70M, A76T, A79V
VL: DVLMTQTPLSLPVSLGDQASISCRSGQSIVHSDGNTYLEWYLQRPGQSPRLLIYKVSNRFSGVPDRFSGSGSGTDFTLKISRVGAEDLGIYYCFQGSHIPWTFGGGTKLEVKR
B38: PR302341-17 (antibody, human IgG1, kappa, V domains shown)
VH: B1 VH with R44G, Q55N, I70M, A76I, S85R, E89D
VL: B37 VL
B39: PR302341-14 (antibody, human IgG1, kappa, V domains shown)
VH: B1 VH with R44G, Q55N, I70M, R72V, T74K, A76T
VL: B37 VL
B40: PR302341-15 (antibody, human IgG1, kappa, V domains shown)
VH: B1 VH with Q55N
VL: B37 VL
B41: PR302341-18 (antibody, human IgG1, kappa, V domains shown)
VH: B1 VH with R44G, Q55N, I70M, R72V, T74K, A76I, S85R, E89D
VL: B37 VL
B42: PR302341-16 (antibody, human IgG1, kappa, V domains shown)
VH: B1 VH with Q55N, R72V, T74K
VL: B37 VL

Biological target: T1, corticotropin-releasing hormone (CRH) …
Test: cell-based or functional assay

hCRHR1 Luciferase Reporter Assay IC50 | mCrhr1 Luciferase Reporter Assay IC50 | Binder
2.05 nM | – | B1
2.01 nM | – | B2
2.68 nM | – | B3
0.821 nM | 1.66 nM | B4
0.427 nM | 1.39 nM | B5
1.6 nM | – | B6
1.89 nM | – | B7
0.471 nM | – | B8
0.792 nM | 1.29 nM | B9
1.98 nM | – | B10
4.13 nM | – | B11
3.12 nM | – | B12
1.77 nM | – | B13
0.616 nM | 2.19 nM | B14
1.04 nM | – | B15
1.73 nM | – | B16
1.82 nM | – | B17
0.498 nM | – | B18
1.78 nM | – | B19
1.09 nM | – | B20
0.457 nM | – | B21
0.267 nM | 2.43 nM | B22
1.75 nM | – | B23

Biological target: T1, corticotropin-releasing hormone (CRH) …
Test: cell-based or functional assay
Remark: another data set of the same source

hCRHR1 Luciferase Reporter Assay IC50 | mCrhr1 Luciferase Reporter Assay IC50 | Binder
0.397 nM | – | B24
0.107 nM | – | B25
0.363 nM | – | B26
0.25 nM | – | B27
0.467 nM | – | B28
0.121 nM | 0.365 nM | B29
0.128 nM | – | B30
0.165 nM | 0.357 nM | B31
0.23 nM | – | B32
0.177 nM | 0.541 nM | B33
0.168 nM | – | B34
0.73 nM | – | B35
0.234 nM | – | B36
0.124 nM | – | B37
0.104 nM | – | B38
0.075 nM | – | B39
0.124 nM | – | B40
0.169 nM | – | B41
0.225 nM | – | B42
